Measurements published in paper PMC8053115.

Biological target: T1, NP C-terminal tail peptide (Influenza A virus A/HK/483/97 (H5N1), UniProt Q9PX50)
T1 chain: DNAEEYDN
Test: MST

Binder: UUUUUUUUU (XNA, 2'-O-methyl) [Cy5 9-mer poly-uridine RNA]
- binding result: no binding
